Experiment [1] addresses T1, human alpha-synuclein monomer (human, UniProt P37840 1-140). The experiment in a line: SPR; SPR; aSyn monomers. (Surface plasmon resonance follows binding to a sensor surface in real time, without labels.)
Experiment [2] has as its target T1, human alpha-synuclein monomer. The experiment is described as follows: SPR (Biacore), aSyn monomers.
Protocol: (§1) Serial 3-fold dilutions of aSyn were injected at a flow rate of 30 μL/min. Each sample was analyzed using a 3-minute association and a 10-minute dissociation. After each injection, the chip was regenerated using 3 M MgCl₂. Binding response was corrected by subtracting the RU from a flow cell capturing an irrelevant IgG at similar density. A 1:1 Languir model of simultaneous fitting of kₒₙ and koff was used for kinetics analysis.
In experiment [3] the target is T2, human alpha-synuclein oligomers (human, UniProt P37840 1-140). The experiment in a line: SPR; SPR; aSyn oligomers.
For experiment [4], the target named is T2, human alpha-synuclein oligomers. The experiment in a line: KinExA kinetic exclusion assay. For orientation: A kinetic exclusion assay measures how much of one partner remains free in solution.
The target in experiment [5] is T3, human alpha-synuclein pre-formed fibrils (human, UniProt P37840 1-140). The experiment is described as follows: KinExA kinetic exclusion assay.
In experiment [6] the target is T1, human alpha-synuclein monomer. The experiment is described as follows: KinExA kinetic exclusion assay.
Experiment [7] shares this target. The experiment is described as follows: SPR (Biacore 8K), IgG captured on anti-human Fc, aSyn monomer injected.
Protocol: as §1
Experiment [8] concerns the target T3, human alpha-synuclein pre-formed fibrils. The experiment in a line: SPR; SPR; aSyn fibrils.
The target in experiment [9] is T4, mouse alpha-synuclein (mouse, UniProt O55042 1-140). The experiment in a line: direct ELISA on coated antigen.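 Note: plates coated with recombinant human, mouse or rat alpha-synuclein, purified antibody titrated 10 µg/mL down to 0.6 ng/mL for 1 h, bound antibody detected by anti-rat HRP with TMB.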 On the technique in general: An ELISA detects its analyte on a solid surface through an enzyme-linked reagent.
Protocol: (§2) 96-well Nunc plates were coated with 50 μL of recombinant human, mouse, or rat alpha-synuclein at a concentration of 1 μg/mL in PBS at 4° C. overnight. The plates were then washed three times with PBST and blocked with PBS containing 3% BSA at room temperature for 1 hour. Purified antibody was diluted by serial dilution methods, from 10 μg/mL to 0.6 ng/mL, and 50 μL of the antibody solution was added to the alpha-synuclein-coated wells. The plates were incubated for 1 hour at room temperature, then washed three times with PBST. Secondary detection antibody (goat anti-rat HRP (obtained from Southern Biotech)) was added 50 μL/well, 1:5,000 diluted in BSA-PBS solution. Plates were incubated for 1 hour at room temperature, then washed three times with PBST. Plates were subsequently developed with 50 μL/well of TMB substrate (Thermo Fisher) and quenched with 50 μL/well of 1 N sulfuric acid. The signal was quantified on a BioTek® plate reader at A450.
Experiment [10] deals with T5, rat alpha-synuclein (rat, UniProt P37377 1-140). The experiment is described as follows: direct ELISA on coated antigen.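 Note: plates coated with recombinant human, mouse or rat alpha-synuclein, purified antibody titrated 10 µg/mL down to 0.6 ng/mL for 1 h, bound antibody detected by anti-rat HRP with TMB.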
Protocol: as §2
Experiment [11] deals with T1, human alpha-synuclein monomer. The experiment is described as follows: direct ELISA on coated antigen.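 Note: plates coated with recombinant human, mouse or rat alpha-synuclein, purified antibody titrated 10 µg/mL down to 0.6 ng/mL for 1 h, bound antibody detected by anti-rat HRP with TMB.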
Protocol: as §2
Experiment [12] has as its target alpha-synuclein peptide 1-112 (human). The experiment in a line: ELISA, plate coated with the peptide or protein, antibody titrated, anti-rat HRP, A450.
Protocol: (§3) 96-well Nunc plates were coated with 1 pg/mL of the indicated synthetic peptide in PBS 50 μL/well overnight. The plates were washed three times with PBST, then blocked with 150 μL of 3% BSA in PBS for 1 hour. Purified antibody was diluted by serial dilution methods, from 10 pg/mL to 0.6 ng/ml, and 50 μL of the antibody solution was added to the peptide-coated wells. The plates were incubated for 1 hour at room temperature, then washed three times with PBST. Secondary detection antibody, goat anti-rat HRP (obtained from Southern Biotech) 1:5,000 diluted in BSA-PBS, was added to a concentration of 50 μL/well. Plates were incubated for one hour and washed three times with PBST. Plates were then developed with 50 μL/well of TMB substrate (obtained from Thermo Fisher) and quenched with 50 μL/well of 1 N sulfuric acid. The signal was quantified on a BioTek® plate reader at A450.
Experiment [13] has as its target T6, alpha-synuclein peptide 61-140 (human).
T6 construct: synthetic peptide coated on plate
The description is as above.
Protocol: as §3

For experiment [14], the target named is T7, alpha-synuclein peptide 1-95 (human).
T7 construct: synthetic peptide coated on plate
The experiment is described as above.
Protocol: as §3

In experiment [15] the target is T8, alpha-synuclein peptide 1-61 (human).
T8 construct: synthetic peptide coated on plate
Described as above.
Protocol: as §3

Experiment [16] concerns the target T9, alpha-synuclein peptide 95-140 (human).
T9 construct: synthetic peptide coated on plate
Described as above.
Protocol: as §3

The target in experiment [17] is T1, human alpha-synuclein monomer. The experiment is described as above.
Protocol: as §3
Experiment [18] has as its target T6, alpha-synuclein peptide 61-140. The experiment in a line: peptide ELISA, coated fragment.
Protocol: as §3
The target in experiment [19] is T9, alpha-synuclein peptide 95-140. The experiment in a line: peptide ELISA, coated fragment.
Protocol: as §3
In another experiment the target is T10, gamma-synuclein protein (human, UniProt O76070 1-127).
T10 construct: species read from 'recombinant human alpha-synuclein protein, beta-synuclein protein, and gamma-synuclein protein'
The experiment is described as follows: ELISA on coated synuclein, 1 ug/mL.

The next experiment deals with T11, beta-synuclein protein (human, UniProt Q16143 1-134).
T11 construct: species read from 'recombinant human alpha-synuclein protein, beta-synuclein protein, and gamma-synuclein protein'
The experiment in a line: ELISA on coated synuclein, 1 ug/mL.

In experiment [20] the target is T3, human alpha-synuclein pre-formed fibrils. The experiment is described as follows: competition ELISA: fibrils titrated in solution against 0.6 nM antibody, free antibody read on aSyn-coated plate.
Protocol: Purified antibody was probed with different concentrations of alpha-synuclein fibrils in solution, and the levels of unbound antibody were measured by ELISA analysis. In this experiment, 0.6 nM (0.1 μg/mL) of purified antibody was dissolved in phosphate-buffered saline (PBS) solution. […] The mixtures were gently shaken at room temperature for 1 hour to reach equilibrium. After that, these samples were transferred to an alpha-synuclein protein-coated ELISA plate and incubated for 5 minutes. During this short incubation, antibody that was not associated to antigen in the previous solution could instead bind onto the plate, and thus be quantified using a standard ELISA technique. By this means, it was possible to determine the amount of free antibody in the initial mixture with alpha-synuclein fibrils at indicated concentrations.
Experiment [21] has as its target T1, human alpha-synuclein monomer. The experiment in a line: ELISA, coated human alpha-synuclein.
For experiment [22], the target named is T4, mouse alpha-synuclein. The experiment is described as follows: ELISA, coated mouse alpha-synuclein.
Protocol: as §2
Experiment [23] concerns the target T1, human alpha-synuclein monomer. The experiment in a line: direct ELISA, plate coated with 1 µg/mL recombinant human alpha-synuclein, antibody titrated, anti-rat HRP, A450.
Protocol: as §2
For experiment [24] the target is unchanged. The experiment in a line: SPR (Biacore), antibody captured, monomer injected, 1:1 fit.
Protocol: (§4) Anti-mouse Fc antibody (obtained from GE Healthcare) was immobilized on the surface of a CM5 chip (obtained from GE Healthcare) through amine-coupling to reach about 6,000 to 8,000 response units (RU). The surface was activated by injection of a mixture of 1-ethyl-3-(3-dimethylaminopropyl)-carbodiimide (EDC) and N-hydroxysuccinimide (NETS), both obtained from GE Healthcare, for 7 minutes at room temperature. […] Both injections were done at room temperature.
(§5) Purified rat anti alpha-synuclein antibody (10 μg/mL) was injected at room temperature and captured to reach 1,000 to 2,000 RU. […] Sensorgrams were fitted using a 1:1 Langmuir model to estimate kₒₙ and koff.
Experiment [25] deals with T2, human alpha-synuclein oligomers. The experiment is described as follows: competition ELISA: oligomers titrated in solution against 0.6 nM antibody, free antibody read on aSyn-coated plate.
Protocol: To measure the binding affinities of select antibodies toward oligomeric alpha-synuclein protein, purified antibodies were probed with different concentrations of human alpha-synuclein oligomers in solution, and the levels of unbound antibody were measured by ELISA analysis. In this experiment, 0.6 nM (0.1 pg/mL) of purified antibody was dissolved in phosphate-buffered saline (PBS) solution. […] The mixtures were gently shaken at room temperature for 1 hour to reach equilibrium. After that, these samples were transferred to an alpha-synuclein protein-coated ELISA plate, and antibody not bound to antigen in the previous solution was detected by direct ELISA.
For experiment [26], the target named is alpha-synuclein phosphorylated at serine 129 (human, UniProt P37840 1-140). The experiment is described as follows: SPR (Biacore), antibody captured, p129-Syn injected.
Protocol: as §4, §5
Experiment [27] deals with alpha-synuclein peptide 1-112 (human). The experiment in a line: peptide ELISA.
Protocol: as §3
Experiment [28] deals with T7, alpha-synuclein peptide 1-95. The experiment in a line: peptide ELISA.
Protocol: as §3
In experiment [29] the target is T8, alpha-synuclein peptide 1-61. The experiment is described as follows: peptide ELISA.
Protocol: as §3
Experiment [30] deals with T5, rat alpha-synuclein. The experiment in a line: direct ELISA on coated antigen; upper end tied to 22D11 by Table 6 (2.0 nM rat / 0.03 nM human).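 Note: plates coated with recombinant human, mouse or rat alpha-synuclein, purified antibody titrated 10 µg/mL down to 0.6 ng/mL for 1 h, bound antibody detected by anti-rat HRP with TMB.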
Protocol: as §2
Experiment [31] concerns the target T4, mouse alpha-synuclein. The experiment is described as follows: direct ELISA, plate coated with 1 µg/mL recombinant mouse alpha-synuclein, antibody titrated, anti-rat HRP, A450.
Protocol: as §2
The target in experiment [32] is T5, rat alpha-synuclein. The experiment in a line: direct ELISA; member tied to this end by the EC50 values of Table 6 (2.0/0.03).
Protocol: as §2
Experiment [33] deals with T6, alpha-synuclein peptide 61-140. The experiment is described as follows: ELISA, plate coated with the peptide or protein, antibody titrated, anti-rat HRP, A450. This is another data set of the same source.
Protocol: as §3
Experiment [34] deals with T9, alpha-synuclein peptide 95-140. The description is as above. The source holds these as a separate data set.
Protocol: as §3
Experiment [35] concerns the target T1, human alpha-synuclein monomer. The experiment is described as above. The source holds these as a separate data set.
Protocol: as §3
Experiment [36] deals with T8, alpha-synuclein peptide 1-61. The experiment is described as above. The source holds these as a separate data set.
Protocol: as §3
The target in experiment [37] is T9, alpha-synuclein peptide 95-140. The description is as above. This is another data set of the same source.
Protocol: as §3

Where two headings read alike, the source gives them in different places. Bounds are passed on as bounds.

A word on the Kd: it is the equilibrium constant for the complex coming apart. Read a high Kd as a looser complex. For orientation: EC50 means the concentration needed to bring the measured effect to its halfway point. A lower EC50 goes with higher potency in that assay. The term EC50 (read off the curve) denotes the concentration giving half of the maximal effect. As usually defined, the IC50 is the concentration that gives 50% inhibition. A higher IC50 goes with a need for much substance. The koff is the first-order rate constant of dissociation. A lower koff goes with a long-lived complex. One may read the kon as a measure of how fast the partners come together. A high value points to fast association.

Protocol for beta-synuclein protein: (§6) Binding to different synuclein species was tested using a method similar to the ELISA format described above. Briefly, recombinant human alpha-synuclein protein, beta-synuclein protein, and gamma-synuclein protein was coated onto 96-well Nunc plates at 1 μg/mL. The plates were washed with PBST and blocked with 150 μL of 3% BSA in PBS. The serial dilutions of purified antibodies were applied onto the plate, and the associated antibody was detected with goat anti-rat HRP secondary antibody.
Protocol for gamma-synuclein protein: as §6

B1: 20H4_HC5_L1_1 (antibody, V domains shown)
VH: EVQLVESGGGLVQPGGSLRLSCAASGFTFSNAAMYWVRQAPGKGLELLARIRTKPNNYATYHADSVKGRFTISRDDSKNTVYLQMNSLRAEDTAVYYCTADMATGDYWGQGTLVTVSS
VL: DIQMTQSPSSLSASVGDRVTITCKASQNINNNLDWYQQKPGKAPKPLIYSTNNLKTGVPSRFSGSGSGTDFTLTISSLQPEDFATYYCYQYKSAWTFGQGTKVEIK
notes: also called 20H4_H5_L1_1; hu20H4
Regarding B1, the Kd in experiment [1] was 0.12 nM; in experiment [2], 0.21 nM; in experiment [3], 0.19 nM; in experiment [4], 0.00886 nM; in experiment [5] it was 0.000638 nM; in experiment [6], 0.0157 nM. Moreover, the Kd was 0.1 nM in experiment [7] and 0.27 nM in experiment [8].

B2: 1H5 (antibody, rat IgG2b, V domains shown)
VH: AVQLVESGGGLVQPKESLKISCAASGFTFSDAAMYWVRQAPGKGLELVARIRTKPNNYATYYADSVKGRFTISRDDSKSMVYLQMGNLKTEDTAMYYCSADFHYFDYWGQGVMVTVSS
VL: DIQMTQSPSVLSASVGDRVTLSCKAGQNINKNLDWYQQKLGEAPKLLISFTNNLQTGVPSRFSGSGSGSDYTLTISSLQPEDVATYYCYQYNSGWTFGGGTKLELK
notes: also called clone 1H5
For the molecule B2, the “Bmax (O.D. at 450 nm)” value with mouse alpha-synuclein [9] stood at 0.16 OD; with rat alpha-synuclein [10], 0.2 OD; in [11], 1.14 OD. In addition, the EC50 with mouse alpha-synuclein [9] came to 5.86 nM; in the experiment with rat alpha-synuclein [10], 2.97 nM; in [11], 0.15 nM. Besides, the binding result is “no binding (tested: 10 µg/ml (1 on the log axis))” in experiment [12]; “no binding (tested: 10 µg/ml (1 on the log axis))” in experiment [14]; “no binding (tested: 10 µg/ml (1 on the log axis))” in experiment [15]; “no binding” with gamma-synuclein protein; “no binding” with beta-synuclein protein. For the same molecule, the “EC50 (read off the curve)” value is about 0.2 µg/mL in experiment [13], about 0.3 µg/mL in experiment [16], about 0.2 µg/mL in experiment [17] and about 0.2 µg/mL in [23]. Besides, the “antibody concentration at which ELISA is positive” value (shortened to “antibody concentration”) is under 40 ng/mL in experiment [18]; under 40 ng/mL in experiment [19]; under 40 ng/mL in experiment [21]; 640 to 2600 ng/mL in the experiment with mouse alpha-synuclein [22]; over 2600 ng/mL in [27]; over 2600 ng/mL in experiment [28]. The “antibody concentration” value in experiment [29] is over 2600 ng/mL. In addition, the IC50 in experiment [20] amounted to 5.86 nM; in [25], 30.7 nM. In addition, the Kd worked out at 16.2 nM in experiment [24] and 23.7 nM in experiment [26]. Further, the koff in [24] was 0.00169 s⁻¹; in experiment [26], 0.00113 s⁻¹. In addition, the kon in [24] was 104000 M⁻¹ s⁻¹; in experiment [26], 47500 M⁻¹ s⁻¹.

B3: 22D11 (antibody, rat IgG1, V domains shown)
VH: AVQFVESGGGLVRPKESLKISCTASGFTFTNAAIYWVRQAPGKGLECIARIRTKPNNYATYYADSVRGRFTISRDDSKPMVYLQMNELKTEDTAMYYCAADASRGDYWGQGVMVTVSS
VL: DIQMTQSPSVLSASVGDRVTFSCKASQNINKNLDWYQQKLGEVPKVLIYFTNNLQTGIPSRFSGSGSGTDYTLTISSLQPEDVATYYCYQYTSGFTFGAGTKLELK
notes: also called clone 22D11
As to B3, the “Bmax (O.D. at 450 nm)” value worked out at 0.05 OD with rat alpha-synuclein [10] and 1.2 OD in experiment [11]. Further, the EC50 with rat alpha-synuclein [10] is 2 nM; in experiment [11], 0.03 nM. Also, the “antibody concentration” value in experiment [18] was under 40 ng/mL; in experiment [19], under 40 ng/mL; in experiment [21], under 40 ng/mL; in [27] it was over 2600 ng/mL; in experiment [28], over 2600 ng/mL; in [29] it was over 2600 ng/mL. The “fold higher EC50 for rat alpha-synuclein compared to human alpha-synuclein” value with rat alpha-synuclein [30] worked out at 66.7 fold. In addition, the binding result in the experiment with gamma-synuclein protein was “no binding”; with beta-synuclein protein it was “no binding”; in the experiment with mouse alpha-synuclein [31] it was “no binding (tested: 10 µg/ml (log 1))”. Besides, the concentration for half-maximal inhibition (IC50) in experiment [20] was 4.53 nM; in experiment [25], 15.2 nM. Further, the “EC50 (read off the curve)” value in experiment [23] was about 0.04 µg/mL; in experiment [33], about 0.03 µg/mL; in experiment [34] it was about 0.04 µg/mL; in experiment [35], about 0.04 µg/mL. Also, the Kd was determined as 18.1 nM in [24] and 42.9 nM in experiment [26]. Also, the figures for the koff in experiment [24] and in experiment [26] were 0.00337 s⁻¹ and 0.0035 s⁻¹, respectively. Besides, the kon came to 186000 M⁻¹ s⁻¹ in experiment [24] and 81600 M⁻¹ s⁻¹ in experiment [26]. The “fold higher EC50 for rat than for human alpha-synuclein” value with rat alpha-synuclein [32] was 66.7 fold.

B4: 16F3 (antibody, IgG2a, V domains shown)
VH: AVQLVESGGGLVQPKESLKISCAASGFTFSNGAMNWVRQAPGKGLEWVARIRTKPNNYATYYADSVKGRFTISRDDSKSMVYLQMDDLKTEDTAMYYCTADGATPFAYWGQGTLVTVSS
VL: DVVLTQTPPTLSATIGQSVSISCRSSQSLLHSNGNTYLHWLLQRPGQSPQLLIYLVSRLESGVPNRFSGSGSGTDFTLKISGVEAEDLGVYYCVQGTHAPFTFGSGTKLEIK
notes: also called clone 16F3
As to B4, the entries for the “antibody concentration” value in experiment [19] and in experiment [29] were under 40 ng/mL and over 2600 ng/mL, respectively. In addition, the binding result in [36] is given as “no binding (tested: 10 µg/ml (1 on the log axis))”. Also, the “EC50 (read off the curve)” value in experiment [37] was about 0.3 µg/mL.
